Experimental data from US20180037623A1.

Target: FGF23 receptor
Assay: cell-based or functional assay

Egr-1-luciferase reporter activity, fold change at about 0.6 nM purified fusion, with heparin (20 µg/ml): 2 fold change
Egr-1-luciferase reporter activity, fold change at about 1.21 nM purified fusion, no heparin: 1.2 fold change
Egr-1-luciferase reporter activity, fold change at about 19.3 nM purified fusion, no heparin: 2.4 fold change
Substance: sKlotho-FGF23-6×His fusion polypeptide
